Measured values: patent US20250304651A1 (ACADEMISCH ZIEKENHUIS LEIDEN H O D N LEIDS UNIVERSITAIR …, published 2025)

Key:
[1] = target: HLA-A*02:01 (recombinant heavy chain with human β2-microglobulin, monomer) (human); assay: monomer refolding
[2] = target: T1, HLA-A*01:01 (monomer for refolding) (human); assay: monomer folding for tetramer production
T1 construct: Monomer production is described in detail only for HLA-A*02:01

[3] = target: T2, HLA-A*03:01 (monomer for refolding) (human); assay: monomer refolding
T2 construct: Monomer production is described in detail only for HLA-A*02:01

[4] = target: T3, HLA-A*11:01 (monomer for refolding) (human); assay: monomer refolding
T3 construct: Monomer production is described in detail only for HLA-A*02:01

[5] = target: T4, ΔNPM1 (mutant NPM1; dNPM1) peptide on HLA-A*03:01 (human); assay: cytokine release
T4 peptide: AVEEVSLRK

[6] = target: T5, ΔNPM1 (mutant NPM1; dNPM1) peptide on HLA-A*11:01 (human); assay: multimer staining
T5 peptide: AVEEVSLRK

[7] = target: T5, ΔNPM1 (mutant NPM1; dNPM1) peptide on …; assay: cytokine release
[8] = target: T6, ΔNPM1 (mutant NPM1; dNPM1) peptide on HLA-A*03:01 (human); assay: multimer staining
T6 peptide: CLAVEEVSLRK

[9] = target: T4, ΔNPM1 (mutant NPM1; dNPM1) peptide on …; assay: multimer staining

B1: ΔNPM1 peptide CLAVEEVSL (peptide)
peptide: CLAVEEVSL
notes: Synthetic peptide
Question: Does B1 bind [1]?
Answer: binds

B2: ΔNPM1 peptide AVEEVSLRK (peptide)
peptide: AVEEVSLRK
notes: Eluted natural ligand in the ligandome work
Question: What does the source list for B2?
Answer: binding result [2]: binds; binding result [3]: binds; binding result [4]: binds

B3: ΔNPM1 peptide CLAVEEVSLRK (peptide)
peptide: CLAVEEVSLRK
notes: Synthetic peptide
Question: What does the source list for B3?
Answer: binding result [3]: binds; binding result [4]: binds

B4: dNPM1-A*11:01 TCR (clone 26.2.D6) (TCR, V domains shown)
Valpha: GEDVEQSLFLSVREGDSSVINCTYTDSSSTYLYWYKQEPGAGLQLLTYIFSNMDMKQDQRLTVLLNKKDKHLSLRIADTQTGDSAIYFCAESKGQNFVFGPGTRLSVLP
Vbeta: DGGITQSPKYLFRKEGQNVTLSCEQNLNHDAMYWYRQDPGQGLRLIYYSHIVNDFQKGDIAEGYSVSREKKESFPLTVTSAQKNPTAFYLCASTTWGTGGHEQYFGPGTRLTVT
Question: What does the source list for B4?
Answer: binding result [5]: no recognition; binding result [6]: recognises

B5: dNPM1-A*11:01 TCR (clone 6F11) (TCR, V domains shown)
Valpha: AQSVTQLDSQVPVFEEAPVELRCNYSSSVSVYLFWYVQYPNQGLQLLLKYLSGSTLVKGINGFEAEFNKSQTSFHLRKPSVHISDTAEYFCAVSPAGNQFYFGTGTSLTVIP
Vbeta: GAGVSQSPRYKVTKRGQDVALRCDPISGHVSLYWYRQALGQGPEFLTYFNYEAQQDKSGLPNDRFSAERPEGSISTLTIQRTEQRDSAMYRCASSLGSNQPQHFGDGTRLSIL
Question: Does B5 bind [5]?
Answer: no recognition

Question: Does B5 bind [6]?
Answer: recognises

B6: dNPM1-A*03:01 TCR (clone 31.3.F1) (TCR, V domains shown)
Valpha: QKEVEQNSGPLSVPEGAIASLNCTYSDRGSQSFFWYRQYSGKSPELIMSIYSNGDKEDGRFTAQLNKASQYVSLLIRDSQPSDSATYLCALSGGGQNFVFGPGTRLSVLP
Vbeta: EAGVTQFPSHSVIEKGQTVTLRCDPISGHDNLYWYRRVMGKEIKFLLHFVKESKQDESGMPNNRFLAERTGGTYSTLKVQPAELEDSGVYFCASSQGSGFRHFGDGTRLSIL
Question: Does B6 bind [7]?
Answer: no recognition

Question: Does B6 bind [8]?
Answer: no recognition

Question: Does B6 bind [9]?
Answer: recognises
